Experimental findings from paper PMC8465381, “Dopamine-Conjugated Carbon Dots Inhibit Human Calcitonin Fibrillation” (Nanomaterials, 2021) are described below.

Positions of bridges follow the written chain, without caps; N, C: chain ends. No end group written: not given here.

This data set concerns the molecule itself. In words: thioflavin-T fluorescence kinetics + TEM; 64 μM hCT alone, 50 mM phosphate buffer pH 7.4, 16 μM ThT, 1% DMSO, 25 °C, 384-well nonbinding plate with agitation every 2 h; end products negatively stained for TEM; fibril formation (self-assembly).

B1: Human calcitonin (peptide, UniProt P01258 85-116, looked up)
peptide: CGNLSTCMLGTYTQDFNKFHTFPQTAIGVGAP-NH2
modifications: disulfide 1-7
notes: human calcitonin, 32-residue hormone peptide cut from the calcitonin precursor; numbers count on: the mature protein; Forms amyloid fibrils; preformed fibrils of the same peptide were used as seeds; also called hCT; source: synthetic peptide (Fmoc solid-phase synthesis, RP-HPLC purified)
With B1, the binding result is “binds”.
